Test results: article doi:10.1101/2025.07.21.665964

Target: Avi-GST-CMG2^ABD
Test: BLI

Substance: purified actin (polymerized F-actin) (from UniProt P60709 1-375) (natural protein)
- Kd: 10 nM
